Test results from paper doi:10.1101/067827 (bioRxiv, 2016).

Biological target: the molecule itself
Test: SEC

B1: MCAK-His6 (purified full-length MCAK) (enzyme, UniProt Q99661 1-725, looked up)
chain: MAMDSSLQARLFPGLAIKIQRSNGLIHSANVRTVNLEKSCVSVEWAEGGATKGKEIDFDDVAAINPELLQLLPLHPKDNLPLQENVTIQKQKRRSVNSKIPAPKESLRSRSTRMSTVSELRITAQENDMEVELPAAANSRKQFSVPPAPTRPSCPAVAEIPLRMVSEEMEEQVHSIRGSSSANPVNSVRRKSCLVKEVEKMKNKREEKKAQNSEMRMKRAQEYDSSFPNWEFARMIKEFRATLECHPLTMTDPIEEHRICVCVRKRPLNKQELAKKEIDVISIPSKCLLLVHEPKLKVDLTKYLENQAFCFDFAFDETASNEVVYRFTARPLVQTIFEGGKATCFAYGQTGSGKTHTMGGDLSGKAQNASKGIYAMASRDVFLLKNQPCYRKLGLEVYVTFFEIYNGKLFDLLNKKAKLRVLEDGKQQVQVVGLQEHLVNSADDVIKMIDMGSACRTSGQTFANSNSSRSHACFQIILRAKGRMHGKFSLVDLAGNERGADTSSADRQTRMEGAEINKSLLALKECIRALGQNKAHTPFRESKLTQVLRDSFIGENSRTCMIATISPGISSCEYTLNTLRYADRVKELSPHSGPSGEQLIQMETEEMEACSNGALIPGNLSKEEEELSSQMSSFNEAMTQIRELEEKAMEELKEIIQQGPDWLELSEMTEQPDYDLETFVNKAESALAQQAKHFSALRDVIKALRLAMQLEEQASRQISSKKRPQ
- stoichiometry N: 2
